Among the data in article PMC5968753, “Radical transfer in E. coli ribonucleotide reductase: a NH2Y731/R411A-α mutant unmasks a new conformation of the pathway residue 731† †Electronic supplementary information (ESI) available. See DOI: 10.1039/c5sc03460d” (Chemical Science, 2015) are Kd values, retold here.

Holding throughout (settings): both partners purified
Experiment [1] deals with T1, R411A-α2 (E. coli class Ia ribonucleotide reductase subunit α2 with the R411A substitution) (E. coli, UniProt P00452 1-761, R411A).
T1 construct: Ribonucleoside-diphosphate reductase 1 subunit alpha (α, NrdA), E. coli; GCG (Ala) inserted at position 411; the construct has an N-terminal (His)6-tag with a 10 amino acid linker; Homodimer (α2); source: E. coli, expressed from pET28a-nrdA, purified by previous protocols; pre-reduced with 30 mM DTT and 15 mM HU before use
T1 sequence: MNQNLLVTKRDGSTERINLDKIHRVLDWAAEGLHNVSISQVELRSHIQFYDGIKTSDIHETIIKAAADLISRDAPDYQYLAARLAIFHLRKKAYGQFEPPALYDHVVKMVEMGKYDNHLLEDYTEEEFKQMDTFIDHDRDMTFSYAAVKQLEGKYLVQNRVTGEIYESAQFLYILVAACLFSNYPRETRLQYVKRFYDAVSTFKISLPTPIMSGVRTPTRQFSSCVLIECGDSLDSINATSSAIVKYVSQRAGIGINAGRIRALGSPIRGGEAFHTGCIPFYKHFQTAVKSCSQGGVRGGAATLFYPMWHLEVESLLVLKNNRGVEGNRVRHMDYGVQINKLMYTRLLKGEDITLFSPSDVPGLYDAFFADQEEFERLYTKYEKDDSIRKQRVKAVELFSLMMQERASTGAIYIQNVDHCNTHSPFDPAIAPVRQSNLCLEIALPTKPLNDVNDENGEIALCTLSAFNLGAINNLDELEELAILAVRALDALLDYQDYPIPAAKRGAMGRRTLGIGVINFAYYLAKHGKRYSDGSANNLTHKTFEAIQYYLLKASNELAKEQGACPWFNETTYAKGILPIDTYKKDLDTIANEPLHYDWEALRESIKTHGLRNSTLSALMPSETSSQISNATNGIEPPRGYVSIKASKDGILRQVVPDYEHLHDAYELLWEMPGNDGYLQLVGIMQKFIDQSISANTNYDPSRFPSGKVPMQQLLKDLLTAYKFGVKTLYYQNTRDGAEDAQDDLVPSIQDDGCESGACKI
The experiment in a line: spectrophotometric competitive inhibition assay (enzyme activity); R411A-α2 used as the inhibitor, 10 nM to 5 μM; D2O assay buffer; relative activities in the presence of inhibitor fit to the standard Kd equation (eq. 1); average of two replicates.

For experiment [2], the target named is T2, R411A-α2, E. coli class Ia ribonucleotide reductase subunit α2 with R411A (E. coli, UniProt P00452 1-761, R411A).
T2 construct: E. coli class Ia ribonucleotide reductase subunit alpha (nrdA) with R411A; a 10 amino acid linker follows the N-terminal (His)6-tag; source: pre-reduced with 30 mM DTT and 15 mM HU before use
T2 sequence (looked up): T1 sequence
The experiment in a line: competitive inhibition assay; Kd for α2 mutant and wt-β2, determined in H2O and D2O buffers by the competitive inhibition assay of ref. 42; details in SI-2, Fig. S2.

In experiment [3] the target is T3, NH2Y731/R411A-α2, E. coli class Ia ribonucleotide reductase subunit α2 with 3-aminotyrosine at 731 and R411A (E. coli, UniProt P00452 1-761, R411A, 3-aminotyrosine (NH2Y) at 731 in place of Y731).
T3 construct: E. coli class Ia ribonucleotide reductase subunit alpha (nrdA) with R411A and the unnatural amino acid 3-aminotyrosine incorporated at position 731; a 10 amino acid linker follows the N-terminal (His)6-tag; With β2, CDP and ATP the 3-aminotyrosine at 731 is oxidised to the radical NH2Y731˙ (ND2Y731˙ in D2O); also called ND2Y731˙/R411A-α2; ND2Y731˙/R411A-α; source: pre-reduced with 30 mM DTT and …
T3 sequence (looked up): T1 sequence
Described as above.

B1: wt-β2 (E. coli class Ia ribonucleotide reductase subunit β2, wild type) (enzyme, UniProt P69924 1-376, looked up)
chain: MAYTTFSQTKNDQLKEPMFFGQPVNVARYDQQKYDIFEKLIEKQLSFFWRPEEVDVSRDRIDYQALPEHEKHIFISNLKYQTLLDSIQGRSPNVALLPLISIPELETWVETWAFSETIHSRSYTHIIRNIVNDPSVVFDDIVTNEQIQKRAEGISSYYDELIEMTSYWHLLGEGTHTVNGKTVTVSLRELKKKLYLCLMSVNALEAIRFYVSFACSFAFAERELMEGNAKIIRLIARDEALHLTGTQHMLNLLRSGADDPEMAEIAEECKQECYDLFVQAAQQEKDWADYLFRDGSMIGLNKDILCQYVEYITNIRMQAVGLDLPFQTRSNPIPWINTWLVSDNVQVAPQEVEVSSYLVGQIDSEVDTDDLSNFQL
modifications: tyrosyl radical at Y122 (1.2 Y•/β2), di-iron cofactor
notes: Ribonucleoside-diphosphate reductase 1 subunit beta (β, NrdB), E. coli, wild type; Y122 is Y123 in P69924); Homodimer (β2); source: expressed and purified by standard protocols (7000 nmol min^-1 mg^-1, 1.2 Y•/β2)
Broadly, the Kd is the free concentration of one partner at which half of the binding sites on the other are occupied at equilibrium, for simple one-to-one binding. With B1, in experiment [1], the Kd is 900 ± 190 nM.

B2: wt-β2, E. coli class Ia ribonucleotide reductase subunit β2 (enzyme, UniProt P69924 1-376, looked up)
chain: B1 chain
modifications: tyrosyl radical at Y122 (1.2 Y˙/β2)
notes: E. coli class Ia ribonucleotide reductase subunit beta, with the di-iron tyrosyl radical cofactor (FeIII2–Y122˙)
For the molecule B2, the Kd was 940 ± 330 nM in experiment [2] and 8 ± 1 nM in experiment [3].
